Measurements reported in patent publication US11891634B2, “PDE5A destabilizing domains” (The Board of Trustees of the Leland Stanford Junior …, priority 2017, dated 2024).

Legend:
[1] = test system: HCT 116 cells transduced with the PDE5A DD derived GFP constructs; experiment: Response to Vardenafil, GFP expression by FACS in HCT116; type: cell-based, human; details: for MFI / Stabilization ratio with Vardenafil: 48 hours, HCT116
Description: Mutations were created in PDE5A (535-860) catalytic domain using site directed mutagenesis and the mutants were cloned as AcGFP fusion into pELNS vector carrying mCherry marker and packaged in lentiviral vectors. HCT116 cells were transduced with the constructs and stable integrants were selected by cell sorting using mCherry marker. Cells were treated with vehicle (dimethyl sulfoxide, DMSO) or 10 μM Vardenafil (VDF) for 48 hours. Following the treatment, cells were analyzed for GFP expression using FACS. Basal expression was calculated as the ratio of GFP signal in the absence of ligand for a given cell line to auto fluorescence of parental HCT-116 cells. Stabilization ratio was calculated as the ratio of the GFP signal observed in the presence of stabilizing ligand to the signal from the same cell line in the absence of ligand.
HCT 116 cells transduced with the PDE5A DD derived GFP constructs were also tested with increasing doses of Vardenafil. The HCT116 cells were incubated for 48 hours with Vardenafil starting at a dose of 0.002 μM to 30 μM. The GFP intensity of the Vardenafil treated samples was compared to the parental untransduced HCT116 and DMSO treated cells for each construct. The mean fluorescence intensity was calculated for each sample and used to calculate the stabilization ratios as well as the basal expression for each construct. The GFP expression was measured using flow cytometry and the mean fluorescence intensity (MFI) was calculated for each sample. The stabilization ratios are shown in Table 13 and Table 14 and the basal expression is show in Table 15.

[2] = test system: HCT116 cells transduced with the constructs; experiment: Response to Sildenafil, GFP expression by flow cytometry in HCT116; type: cell-based, human; details: for MFI / Stabilization ratio with Sildenafil: 48 hours, HCT116
Description: Similar experiments were performed in HCT116 cells using sildenafil. The above-mentioned DDs were cloned as AcGFP fusion into pELNS vector carrying mCherry marker and packaged in lentiviral vectors. HCT116 cells were transduced with the constructs and stable integrants were selected by cell sorting using mCherry marker. Cells were treated with sildenafil at the following μM concentrations: 0.01, 0.02, 0.05, 0.14, 0.41, 1.23, 3.7, 11.11, 33.33, and 100 for a duration of 48 hours. The fluorescence was analyzed by flow cytometry and the mean fluorescence intensity was calculated for all samples. […] The stabilization ratios are shown in Table 24 and Table 25 and the basal expression is show in Table 26.

B1: PDE5AC (#42): AcGFP fused to C-terminal DD 535-860 of PDE5A (E535D, K555R, F564S, Q589R, K630R, C677R, N742S, I799T, M816A), SEQ ID NO. 28 (protein)
chain: DETRELQSLAAAVVPSAQTLRITDFSFSDSELSDLETALCTIRMFTDLNLVQNFRMKHEVLCRWILSVKKNYRKNVAYHNWRHAFNTAQCMFAALRAGKIQNKLTDLEILALLIAALSHDLDHRGVNNSYIQRSEHPLAQLYRHSIMEHHHFDQCLMILNSPGNQILSGLSIEEYKTTLKIIKQAILATDLALYIKRRGEFFELIRKSQFNLEDPHQKELFLAMLMTACDLSAITKPWPIQQRIAELVATEFFDQGDRERKELNTEPTDLMNREKKNKIPSAQVGFIDAICLQLYEALTHVSEDCFPLLDGCRKNRQKWQALAEQQ
modifications: /note=“Description of Artificial Sequence Synthetic Destabilizing Domain (DD)”
MFI ([1]; DMSO (no Vardenafil)): 25111 | Basal (DMSO/Parental) ([1]; Table 10, GFP signal without ligand / auto fluorescence of parental HCT-116): 20.0 | Basal ([1]; Table 15, MFI with DMSO / parental HCT116, Vardenafil experiment): 12.85 | Stabilization ratio with Vardenafil ([1]; Vardenafil 0.002 μM vs DMSO): 1.0 | MFI ([1]; Vardenafil 0.002 μM): 25236 | MFI ([1]; Vardenafil 0.005 μM): 28309 | Stabilization ratio with Vardenafil ([1]; Vardenafil 0.014 μM vs DMSO): 1.4 | MFI ([1]; Vardenafil 0.014 μM): 33958 | Stabilization ratio with Vardenafil ([1]; Vardenafil 0.041 μM vs DMSO): 1.9 | MFI ([1]; Vardenafil 0.041 μM): 46882 | Stabilization ratio with Vardenafil ([1]; Vardenafil 0.123 μM vs DMSO): 3.2 | MFI ([1]; Vardenafil 0.123 μM): 81233 | Stabilization ratio with Vardenafil ([1]; Vardenafil 0.370 μM vs DMSO): 4.6 | MFI ([1]; Vardenafil 0.370 μM): 114847 | Stabilization ratio with Vardenafil ([1]; Vardenafil 1.111 μM vs DMSO): 5.4 | MFI ([1]; Vardenafil 1.111 μM): 136303 | Stabilization ratio with Vardenafil ([1]; Vardenafil 3.333 μM vs DMSO): 5.9 | MFI ([1]; Vardenafil 3.333 μM): 147512 | Stabilization ratio with Vardenafil ([1]; Vardenafil 10 μM vs DMSO): 6.4 | MFI ([1]; Vardenafil 10 μM): 161587 | Stabilization ratio with Vardenafil ([1]; Vardenafil 30 μM vs DMSO): 8.0 | MFI ([1]; Vardenafil 30 μM): 199877 | MFI ([2]; DMSO (no Sildenafil)): 23943 | Stabilization ratio with Sildenafil ([2]; Sildenafil 0.01 μM vs DMSO): 1.0 | MFI ([2]; Sildenafil 0.01 μM): 23295 | Stabilization ratio with Sildenafil ([2]; Sildenafil 0.02 μM vs DMSO): 1.0 | MFI ([2]; Sildenafil 0.02 μM): 23606 | Stabilization ratio with Sildenafil ([2]; Sildenafil 0.05 μM vs DMSO): 1.0 | MFI ([2]; Sildenafil 0.05 μM): 24817 | Stabilization ratio with Sildenafil ([2]; Sildenafil 0.14 μM vs DMSO): 1.2 | MFI ([2]; Sildenafil 0.14 μM): 29495 | Stabilization ratio with Sildenafil ([2]; Sildenafil 0.41 μM vs DMSO): 1.7 | MFI ([2]; Sildenafil 0.41 μM): 40817 | Stabilization ratio with Sildenafil ([2]; Sildenafil 1.23 μM vs DMSO): 2.6 | MFI ([2]; Sildenafil 1.23 μM): 63410 | Stabilization ratio with Sildenafil ([2]; Sildenafil 3.70 μM vs DMSO): 3.8 | MFI ([2]; Sildenafil 3.70 μM): 91798 | Stabilization ratio with Sildenafil ([2]; Sildenafil 11.11 μM vs DMSO): 5.3 | MFI ([2]; Sildenafil 11.11 μM): 127187 | Stabilization ratio with Sildenafil ([2]; Sildenafil 33.33 μM vs DMSO): 6.3 | MFI ([2]; Sildenafil 33.33 μM): 149906 | Stabilization ratio with Sildenafil ([2]; Sildenafil 100.00 μM vs DMSO): 6.9 | MFI ([2]; Sildenafil 100.00 μM): 164269 | Basal expression ([2]; Table 26, MFI with DMSO / parental HCT116, Sildenafil experiment): 18.6
